Laboratory results reported in US20070224620A1 (PROMEGA, published 2007).

B1: HaloTag (HT) alone (enzyme, Rhodococcus rhodochrous, UniProt P0A3G2 1-293, looked up)
chain: MSEIGTGFPFDPHYVEVLGERMHYVDVGPRDGTPVLFLHGNPTSSYLWRNIIPHVAPSHRCIAPDLIGMGKSDKPDLDYFFDDHVRYLDAFIEALGLEEVVLVIHDWGSALGFHWAKRNPERVKGIACMEFIRPIPTWDEWPEFARETFQAFRTADVGRELIIDQNAFIEGALPMGVVRPLTEVEMDHYREPFLKPVDREPLWRFPNELPIAGEPANIVALVEAYMNWLHQSPVPKLLFWGTPGVLIPPAEAARLAESLPNCKTVDIGPGLFLLQEDNPDLIGSEIARWLPAL
notes: Control bait without a fused partner, covalently captured on HaloLink resin; also called mutant dehalogenase protein
B2: GST-Frb (other)
chain: ILWHEMWHEGLEEASRLYFGERNVKGMFEVLEPLHAMMERGPQTLKETSFNQAYGRDLMEAQEWCRKYMKSGNVKDLTQAWDLYYHVFRRISK
modifications: fluorescently labeled using Lys-tRNA with FluoroTect Green (labelled lysines, positions not stated)
notes: domain: Frb domain of Frap; N-terminal GST fusion expressed in rabbit reticulocyte lysate; linker not described; also called Prey; Frb domain of Frap; not shown: GST, N-terminal fusion partner encoded by Flexi vector pFN2A (Promega)

Legend:
GST-cFos = biological target: T1, GST-cFos (UniProt P01100 1-380, fluorescently labeled using Lys-tRNA with FluoroTect Green (labelled lysines, positions not stated)); assay: HaloLink resin pull-down, lane 3: HT alone as bait, no crosslinker; release of fluorescent prey read on gel
T1 construct: N-terminal GST fusion expressed in rabbit reticulocyte lysate; also called Prey; not shown: GST, N-terminal fusion partner encoded by Flexi vector pFN2A (Promega)
T1 sequence (P01100 whole entry, the tested form may be a part): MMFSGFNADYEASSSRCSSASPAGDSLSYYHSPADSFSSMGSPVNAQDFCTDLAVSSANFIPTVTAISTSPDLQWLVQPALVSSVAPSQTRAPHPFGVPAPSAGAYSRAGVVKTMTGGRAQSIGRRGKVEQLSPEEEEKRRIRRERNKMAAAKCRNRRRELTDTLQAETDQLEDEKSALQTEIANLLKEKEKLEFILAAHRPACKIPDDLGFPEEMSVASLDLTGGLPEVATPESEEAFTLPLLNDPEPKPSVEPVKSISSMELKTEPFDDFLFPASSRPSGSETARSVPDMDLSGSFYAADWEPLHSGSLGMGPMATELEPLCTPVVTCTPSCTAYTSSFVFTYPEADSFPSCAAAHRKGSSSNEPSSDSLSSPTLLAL

HaloTag (HT) alone = biological target: B1; assay: HaloLink resin pull-down, lane 1: HT alone as bait, 2 uM rapamycin, no DTTSP; release of fluorescent prey read on gel; text: showed no background binding of Prey
Method: Remove final wash solution and add protein-protein crosslinked material to resin. Incubate at 22° C. for one hour. Wash resin 5×1 mL with 1×TBS+0.05% IGEPAL as described above. Remove final wash. At this point, the crosslinked protein-protein complex has been covalently captured and purified on the resin and can be resuspended in the desired buffer. In samples treated with the crosslinker DTTSP, resupend resin in 1×SDS Loading buffer containing 5 mM β-Me and boil at 95° C. for 5 minutes to reverse the protein-protein crosslinks. Analyse samples using SDS gel electrophoresis.

B1
binding result (GST-cFos): no binding

B2
binding result (HaloTag (HT) alone): no binding
